Patent EP1536230A1, “Flow cytometric, particle-based binding assay” (Deutsches Rheuma-Forschungszentrum Berlin, priority 2003, dated 2005)
Where no end group is shown, it is not given here. The star is where a group is joined. Biotin = O=C1N[C@H]2[C@H](CS[C@H]2CCCCC(=O)*)N1

What was measured:
[1] = target: T1, Rekombinantes menschliches CaN (Homo sapiens, UniProt Q08209); experiment: Flow cytometric, particle-based binding assay: FITC-CaN bound via biotinylated peptide to streptavidin beads; details: FITC-CaN (25 nM), versus control without peptide; for mittlere Fluoreszenzintensität (Bindung von FITC-CaN über biotinyliertes Peptid an Beads): biot-VIVIT-Peptid (300 nM), Streptavidin-Beads (50000); for mittlere Fluoreszenzintensität (Bindung von FITC-CaN über NFAT-B-Peptid an Beads): biot-NFAT-B-Peptid (4µM)
T1 construct: made in house; host or cells: E. coli
Protocol: Der Assaypuffer war wie folgt zusammengesetzt: 25mM Tris/HCl, 3mM MgCl2, 1mM EGTA, 0,5mM DTT oder TCEP, pH 7,4. Wenn nicht anders angegeben, wurde der Assaypuffer noch mit 0,05% BSA (PAA laboratories) versetzt.
Rekombinantes menschliches CaN wurde in Boratpuffer aufgenommen und mit FITC (Sigma) in einem molaren Verhältnis von 1:12 für 1h auf Eis und vor Licht geschützt inkubiert. Das ungebundenen FITC wurde dann über eine PD10 Säule (Amersham-Pharmacia) abgetrennt.
NFAT-B Peptid (4 µM) für 10 min lichtgeschützt auf Eis inkubierte, wurden 50000 beads in 10 µl Asaypuffer pipettiert. Nach weiteren 10 min Inkubation wurde das Reaktionsgemisch (110 µl) im Durchflusszytometer "FacsCalibur" (BD Biosciences) gemessen. […] Assay vorgeschaltet. Dafür wurde 1 µl Inhibitor (in DMSO) zu FITC-CaN in Assaypuffer (94 µl) pipettiert und anschließend für 30 min lichtgeschützt auf Eis belassen. Die Auswertung der Meßdaten erfolgte mit der Software CellQuest (BD Biosciences).

[2] = target: T2, FITC-Ovalbumin (Gallus gallus, UniProt P01012); experiment: Flow cytometric, particle-based binding assay with control protein FITC-Ovalbumin (specificity); details: FITC-Ovalbumin (25 nM); biot-VIVIT-Peptid (300 nM)
T2 construct: purchased Sigma
T2 sequence (P01012 1-386): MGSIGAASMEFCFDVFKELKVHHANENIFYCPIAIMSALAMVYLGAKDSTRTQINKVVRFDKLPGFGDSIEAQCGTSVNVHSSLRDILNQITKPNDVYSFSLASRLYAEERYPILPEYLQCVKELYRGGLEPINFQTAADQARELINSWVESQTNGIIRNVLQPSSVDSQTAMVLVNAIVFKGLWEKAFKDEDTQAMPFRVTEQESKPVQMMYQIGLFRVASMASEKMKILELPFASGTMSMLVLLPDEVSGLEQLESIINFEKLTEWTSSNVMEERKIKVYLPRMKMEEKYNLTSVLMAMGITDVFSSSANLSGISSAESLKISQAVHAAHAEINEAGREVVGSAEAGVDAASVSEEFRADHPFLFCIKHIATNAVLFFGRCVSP

Fluoreszenzintensität (Bindung des Kontrollproteins FITC-Ovalbumin) [2] | mittlere Fluoreszenzintensität (Bindung von FITC-CaN über NFAT-B-Peptid an Beads) ([1]; mit Ca2+/Calmodulin) | mittlere Fluoreszenzintensität (Bindung von FITC-CaN über NFAT-B-Peptid an Beads) ([1]; ohne Ca2+/Calmodulin) | mittlere Fluoreszenzintensität (Bindung von FITC-CaN über biotinyliertes Peptid an Beads) ([1]; listed as biot-TIVIV-Peptid) | Substance | mittlere Fluoreszenzintensität (Bindung von FITC-CaN über biotinyliertes Peptid an Beads) [1]
bindet |  |  |  | GGRRKRSESSKQQKPLE [AKAP79] | bindet
 | höhere mittlere Fluoreszenzintensität | höhere mittlere Fluoreszenzintensität |  | KGGFCDQYLAVPQHPYQWAK [biot-NFAT-B-Peptid] | 
 |  |  | keine erhöhte Fluoreszenzintensität | biotinyl-EEHPGTIVIVPHPGAMG (Biotin-EEHPGTIVIVPHPGAMG) [biot-TIVIV] | nicht mit biot-TIVIV eine erhöhte Fluoreszenzintensität
